Data: patent publication US20240209041A1 (SRI INTERNATIONAL, published 2024)
Primed or numbered codes have the meaning given here. [ ]: non-standard residue; d: D form. PEG11′ = not defined here

Biological target: purified EphA2 (UniProt P29317 25-534, limits assumed)
Experiment: binding to purified EphA2; method not stated

Sequence of purified EphA2 (P29317 25-534 limits assumed): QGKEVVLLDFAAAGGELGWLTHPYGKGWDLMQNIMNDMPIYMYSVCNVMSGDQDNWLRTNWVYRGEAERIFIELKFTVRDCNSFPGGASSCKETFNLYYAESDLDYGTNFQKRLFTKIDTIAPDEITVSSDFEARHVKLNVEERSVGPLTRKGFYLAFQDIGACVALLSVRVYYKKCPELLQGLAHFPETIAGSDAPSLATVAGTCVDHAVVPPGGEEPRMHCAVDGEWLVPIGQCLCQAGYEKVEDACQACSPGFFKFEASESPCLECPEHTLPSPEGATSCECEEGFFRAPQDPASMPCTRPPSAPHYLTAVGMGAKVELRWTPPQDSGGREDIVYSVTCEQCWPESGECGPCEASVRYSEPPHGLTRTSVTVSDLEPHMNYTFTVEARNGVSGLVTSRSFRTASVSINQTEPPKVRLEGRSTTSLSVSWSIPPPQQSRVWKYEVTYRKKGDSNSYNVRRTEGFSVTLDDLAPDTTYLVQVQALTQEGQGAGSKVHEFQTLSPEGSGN

B1: MGS_H1299.2 V4 (peptide)
peptide: Ac-YAAWPASGAWT[PEG11′]C-NH2
notes: Optimized MGS peptide from phage display (parent H1299.2); also called MGS_1299.2 V4
B1 showed a Kd of 3.2 nM.
